Reference: patent publication US8722052B2, “Vaccinia virus protein A46 peptide and use thereof” (priority 2008, dated 2014)
“Also recorded” adds a separate entry of the source. Square brackets hold non-standard residues; d marks the D form. Ends that are not written are not given here.

biological target: T1, TLR4 (Mus musculus, UniProt Q9QUK6); assay: LPS-induced TNFα in immortalised murine macrophages, ELISA; format: cell-based; set-up: endogenous in cells; immortalised murine bone-marrow-derived macrophages; conditions: peptide 1, 5 or 25 μM 1 h before 10 ng/ml LPS, 6 h
T1 sequence (Q9QUK6 26-835): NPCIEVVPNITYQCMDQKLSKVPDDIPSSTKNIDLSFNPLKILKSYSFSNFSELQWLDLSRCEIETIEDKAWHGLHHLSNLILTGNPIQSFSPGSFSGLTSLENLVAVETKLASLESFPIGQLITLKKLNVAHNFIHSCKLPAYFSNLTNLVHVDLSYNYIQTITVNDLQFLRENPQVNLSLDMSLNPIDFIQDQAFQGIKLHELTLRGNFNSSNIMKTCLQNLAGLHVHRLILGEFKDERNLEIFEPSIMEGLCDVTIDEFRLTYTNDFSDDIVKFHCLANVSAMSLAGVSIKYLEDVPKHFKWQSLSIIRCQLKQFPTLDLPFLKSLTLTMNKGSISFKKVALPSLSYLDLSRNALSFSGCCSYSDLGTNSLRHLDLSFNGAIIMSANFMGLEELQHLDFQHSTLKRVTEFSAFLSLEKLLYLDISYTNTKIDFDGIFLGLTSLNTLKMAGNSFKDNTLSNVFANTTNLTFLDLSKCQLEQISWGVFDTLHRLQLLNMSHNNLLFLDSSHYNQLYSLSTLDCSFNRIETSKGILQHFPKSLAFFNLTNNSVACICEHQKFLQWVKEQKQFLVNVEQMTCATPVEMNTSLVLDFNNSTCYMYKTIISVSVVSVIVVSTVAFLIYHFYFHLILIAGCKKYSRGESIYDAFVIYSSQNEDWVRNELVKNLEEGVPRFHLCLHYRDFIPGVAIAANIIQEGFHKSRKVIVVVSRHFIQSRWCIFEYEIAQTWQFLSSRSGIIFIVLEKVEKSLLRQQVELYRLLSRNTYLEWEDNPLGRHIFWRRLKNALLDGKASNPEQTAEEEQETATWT
T1 sequence (Q9JHF9 19-160 partner): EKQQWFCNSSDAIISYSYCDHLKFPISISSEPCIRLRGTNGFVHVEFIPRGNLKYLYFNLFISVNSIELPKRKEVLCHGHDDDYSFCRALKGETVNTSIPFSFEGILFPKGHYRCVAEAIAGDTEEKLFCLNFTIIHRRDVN
Description: FIGS. 14A and B are bar charts showing the comparison of the inhibitory effect of the L- and D-forms of A464 on LPS-induced TNFα in primary human and murine cells. PBMC (1×10^6 cells/ml, (A)) or immortalised murine macrophages (1.5×10^5 cells/ml, (B)) were seeded in 96 well plates 24 hours before treatment. L-form and D-form A464 peptides (with the 9R delivery peptide on the C-terminus, SEQ ID NO. 20) were added to the cells at a concentration of 1, 5 or 25 μM 1 hour before stimulating with 10 ng/ml LPS. Supernatants were collected 6 hours after stimulation and assayed for either human (A) or murine (B) TNFα production by ELISA. No peptides were added to the control wells (black bars). Data is representative of at least three experiments each performed in triplicate and is expressed as mean±s.d;
FIGS. 15A and B are bar charts showing the effect of the D-form A464 peptide with the TAT delivery sequence on LPS induced TNFα in primary human and murine cells. PBMC (A) and immortalised murine macrophages (B) were seeded in 96 well plates 24 hours before treatment. D-form of A467 (SEQ ID NO. 37) and A464 (SEQ ID NO. 36) with the TAT delivery sequence were added to the cells at a concentration of 1, 5 or 25 μM 1 hour before stimulating with 10 ng/ml LPS. The peptides were added into the unstimulated control wells at 25 μM. Supernatants were collected 6 hours after stimulation and assayed for either human (A) or murine (B) TNFα production by ELISA. No peptides were added to the control wells (black bars). Data is representative of at least three experiments each performed in triplicate and is expressed as mean±s.d;
FIGS. 16A and B are bar charts showing the effect of attaching 9R to the N-terminus of A464 on LPS-induced TNFα in primary human and murine cells. Immortalised murine macrophages (A) and PBMC (B) were seeded in 96 well plates 24 hours before treatment. L-form of A467 (SEQ ID NO. 39) and A464 (SEQ ID NO. 38) with the 9R-delivery sequence at the N-terminus were added to the cells at a concentration of 1, 5 or 25 μM 1 hour before stimulating with 10 ng/ml LPS. The peptides were added into the unstimulated control wells at […]. Supernatants were collected 6 hours after stimulation and assayed for either murine (A) or human (B) TNFα production by ELISA. No peptides were added to the control wells (black bars). Data is representative of at least three experiments each performed in triplicate and is expressed as mean±s.d;
FIGS. 17A and B are bar charts showing the effect of the D-form A464 with 9R at the N-terminus on LPS-induced TNFα in primary human and murine cells. Immortalised murine macrophages (A) and PBMC (B) were seeded in 96 well plates 24 hours before treatment. D-form of A467 (SEQ ID NO. 39) and A464 (SEQ ID NO. 38) peptides with the 9R-delivery sequence at N-terminus were added to the cells at a concentration of 1, 5 or 25 μM 1 hour before stimulating with 10 ng/ml LPS. The peptides were added into the unstimulated control wells at 25 μM. Supernatants were collected 6 hours after stimulation and assayed for either murine (A) or human (B) TNFα production by ELISA. No peptides were added to the control wells (black bars). Data is representative of at least three experiments each performed in triplicate and is expressed as mean±s.d;
FIGS. 18A and B are bar charts showing the effect of shortened A464 peptides with deletions of N- and C-terminal amino acids on LPS-induced TNFα in murine macrophages. Immortalised murine macrophages were seeded in 96 well plates (1.5×10^5 cells/ml) 24 hours before treatment. A464 peptides with a deletion of one (N-1) (SEQ ID NO. 40) or two (N-2) (SEQ ID NO. 41) amino acids from the N-terminus (A), or three (C-3) (SEQ ID NO. 42) or six (C-6) (SEQ ID NO. 43) amino acids from the C-terminus (B), were added to the cells at a concentration of 1, 5 or 25 μM 1 hour before stimulating with 10 ng/ml LPS. Peptides were added to the control wells at 25 μM. […]

Row | Substance | inhibition of LPS-induced mTNFα production
1 | 9RN-A464 (RRRRRRRRRKYSFKLILAEY) [Peptide 9RN-A464] | complete inhibition was observed at 1 μM
2 | D-9RN-A464 ([dR][dR][dR][dR][dR][dR][dR][dR][dR][dK][dY][dS][dF][dK][dL][dI][dL][dA][dE][dY]) [Peptide D-9RN-A464] | no inhibition at 1 μM
3 | KYSFKLILAEYRRRRRRRRR [Peptide A464] | significant inhibition of TLR4 by A464 (SEQ ID No. 20) at 1 μM; also recorded: complete inhibition at 1
